Data reported in article PMC4351158 (Structure (London, England : 1993), 2015).
Where no end group is shown, it is not given here. fluorescein = fluorescein, a fluorescent label on the peptide N-terminus

Experiments:
Assay in all cases: fluorescence polarisation
DegS I179A/H198P = target: T1, DegS I179A/H198P (E. coli, UniProt P0AEE3 27-355, I179A | H198P)
T1 sequence (looked up): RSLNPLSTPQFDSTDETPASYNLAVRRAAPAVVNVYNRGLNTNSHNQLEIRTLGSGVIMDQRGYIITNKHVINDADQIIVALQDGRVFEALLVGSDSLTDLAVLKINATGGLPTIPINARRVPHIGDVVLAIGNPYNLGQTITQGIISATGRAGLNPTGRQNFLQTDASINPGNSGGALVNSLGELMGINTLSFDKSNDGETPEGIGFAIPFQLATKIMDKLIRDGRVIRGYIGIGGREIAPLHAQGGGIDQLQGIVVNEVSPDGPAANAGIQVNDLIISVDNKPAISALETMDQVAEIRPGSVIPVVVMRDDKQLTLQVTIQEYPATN

DegS Q191A/H198P = target: T2, DegS Q191A/H198P (E. coli, UniProt P0AEE3 27-355, Q191A | H198P)
T2 sequence (looked up): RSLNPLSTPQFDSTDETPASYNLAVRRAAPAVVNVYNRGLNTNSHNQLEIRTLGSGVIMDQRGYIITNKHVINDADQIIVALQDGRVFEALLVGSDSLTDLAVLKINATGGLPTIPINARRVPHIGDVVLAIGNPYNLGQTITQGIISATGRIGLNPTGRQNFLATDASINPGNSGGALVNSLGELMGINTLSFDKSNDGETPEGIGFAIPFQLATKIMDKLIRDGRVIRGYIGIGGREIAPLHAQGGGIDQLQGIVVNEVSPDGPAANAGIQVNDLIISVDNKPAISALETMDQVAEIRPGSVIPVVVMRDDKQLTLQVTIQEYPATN

DegS P161A = target: T3, DegS P161A (E. coli, UniProt P0AEE3 27-355, P161A)
T3 sequence (looked up): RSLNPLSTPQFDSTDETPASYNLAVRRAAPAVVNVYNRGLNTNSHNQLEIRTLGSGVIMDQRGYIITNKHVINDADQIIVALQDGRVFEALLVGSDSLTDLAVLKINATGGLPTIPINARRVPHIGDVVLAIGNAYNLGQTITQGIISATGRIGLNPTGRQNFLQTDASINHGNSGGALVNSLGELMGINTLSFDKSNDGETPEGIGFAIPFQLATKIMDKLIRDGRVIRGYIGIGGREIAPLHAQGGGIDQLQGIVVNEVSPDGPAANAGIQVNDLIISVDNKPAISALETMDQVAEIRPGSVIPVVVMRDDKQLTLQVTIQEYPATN

DegS H198P/F234A = target: T4, DegS H198P/F234A (E. coli, UniProt P0AEE3 27-355, H198P | F234A)
T4 sequence (looked up): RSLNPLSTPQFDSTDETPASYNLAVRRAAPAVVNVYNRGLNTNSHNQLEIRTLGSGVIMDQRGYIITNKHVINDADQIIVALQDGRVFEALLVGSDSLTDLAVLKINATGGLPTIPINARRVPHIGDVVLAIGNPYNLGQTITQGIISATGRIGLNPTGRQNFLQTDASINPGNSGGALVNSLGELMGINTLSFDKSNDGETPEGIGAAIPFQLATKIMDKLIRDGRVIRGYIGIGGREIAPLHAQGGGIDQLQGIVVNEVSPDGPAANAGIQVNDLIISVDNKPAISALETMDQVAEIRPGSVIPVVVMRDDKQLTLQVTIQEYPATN

DegS L164A = target: T5, DegS L164A (E. coli, UniProt P0AEE3 27-355, L164A)
T5 sequence (looked up): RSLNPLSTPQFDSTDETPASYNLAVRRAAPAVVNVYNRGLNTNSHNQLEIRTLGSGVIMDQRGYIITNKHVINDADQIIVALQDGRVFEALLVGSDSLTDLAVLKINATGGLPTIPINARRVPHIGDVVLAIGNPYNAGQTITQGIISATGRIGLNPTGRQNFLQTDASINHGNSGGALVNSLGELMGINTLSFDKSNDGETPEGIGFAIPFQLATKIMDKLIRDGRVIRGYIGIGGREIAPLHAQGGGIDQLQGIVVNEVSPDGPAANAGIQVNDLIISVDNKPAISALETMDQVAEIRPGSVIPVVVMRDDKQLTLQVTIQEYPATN

DegS T169A = target: T6, DegS T169A (E. coli, UniProt P0AEE3 27-355, T169A)
T6 sequence (looked up): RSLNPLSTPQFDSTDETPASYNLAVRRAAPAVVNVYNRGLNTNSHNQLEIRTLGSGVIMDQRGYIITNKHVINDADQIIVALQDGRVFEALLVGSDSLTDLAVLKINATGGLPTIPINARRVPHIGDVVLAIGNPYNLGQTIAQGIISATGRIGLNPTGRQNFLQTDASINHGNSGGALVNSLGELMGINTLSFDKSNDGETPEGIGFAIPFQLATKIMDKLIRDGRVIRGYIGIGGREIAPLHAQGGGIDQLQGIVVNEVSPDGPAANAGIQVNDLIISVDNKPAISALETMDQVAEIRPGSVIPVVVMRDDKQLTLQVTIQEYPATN

Question: fluorescein-DNRDGNVYYF [fluorescent OMP peptide fluorescein-DNRDGNVYYF] was tested. Which Kd (DegS I179A/H198P) did it give?
Answer: 1600 ± 100 nM

Question: What about the Kd (DegS Q191A/H198P) of the same binder?
Answer: 1400 ± 100 nM

Question: What about the Kd (DegS P161A) of the same binder?
Answer: 1500 ± 100 nM

Question: And the Kd (DegS H198P/F234A)?
Answer: 2900 ± 100 nM

Question: What about the Kd (DegS L164A) of the same binder?
Answer: 2800 ± 600 nM

Question: And the Kd (DegS T169A)?
Answer: 1800 ± 100 nM
